Results as given in patent publication US20210032299A1 (Eli Lilly, published 2021).
Changes are numbered by the printed parent chain. Starred links: 1 amine or outer side, 2 acyl side, 3 side chain; linkers in the order of their positions; H or OH if unused. Non-standard residues stand in square brackets, D forms with d. Groups on a side chain read outwards from the residue. No end group written: not given here. *: point of attachment. C20 diacid = O=C(O)CCCCCCCCCCCCCCCCCCC(=O)*; αMePhe(2-F) = C[C@](N)(Cc1ccccc1F)C(=O)O; γGlu = O=C(O)[C@H](CCC(=O)[*:2])N[*:1]; αMeF = C[C@](N)(Cc1ccccc1)C(=O)O; 4Pal = N[C@@H](Cc1ccncc1)C(=O)O; αMeL = CC(C)C[C@](C)(N)C(=O)O; Orn = NCCC[C@H](N)C(=O)O; AEEA = NCCOCCOCC(=O)O; Aib = CC(C)(N)C(=O)O

Assays:
[1] = target: T1, human glucose-dependent insulinotropic polypeptide (GIP) receptor (human, UniProt P48546 22-466); test: SPA, displacement of [125I]-GIP from hGIPR membranes, 0.1% bacitracin
T1 construct: whole, on cells; Assayed as crude membranes of stably transfected CHO cells; also called hGIPR; human GIP receptor
T1 sequence (looked up): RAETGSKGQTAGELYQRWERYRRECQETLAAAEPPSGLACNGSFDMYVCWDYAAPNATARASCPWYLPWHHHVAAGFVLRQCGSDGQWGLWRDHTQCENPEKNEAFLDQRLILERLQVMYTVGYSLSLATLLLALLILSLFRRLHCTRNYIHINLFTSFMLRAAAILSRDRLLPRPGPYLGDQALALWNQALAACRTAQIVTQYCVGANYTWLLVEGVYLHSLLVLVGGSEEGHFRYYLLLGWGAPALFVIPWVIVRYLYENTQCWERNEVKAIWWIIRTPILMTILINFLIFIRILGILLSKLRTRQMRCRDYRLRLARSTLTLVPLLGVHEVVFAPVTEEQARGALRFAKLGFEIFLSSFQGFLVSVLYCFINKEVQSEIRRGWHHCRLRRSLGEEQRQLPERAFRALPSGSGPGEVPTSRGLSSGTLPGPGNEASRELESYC

human glucagon receptor = target: T2, human glucagon receptor (human, UniProt P47871 26-477); test: SPA, displacement of [125I]-Gcg from hGcgR membranes, 0.1% bacitracin
T2 construct: whole, on cells; Assayed as crude membranes of stably transfected HEK293 cells; also called hGcgR; GcgR
T2 sequence (P47871 26-477): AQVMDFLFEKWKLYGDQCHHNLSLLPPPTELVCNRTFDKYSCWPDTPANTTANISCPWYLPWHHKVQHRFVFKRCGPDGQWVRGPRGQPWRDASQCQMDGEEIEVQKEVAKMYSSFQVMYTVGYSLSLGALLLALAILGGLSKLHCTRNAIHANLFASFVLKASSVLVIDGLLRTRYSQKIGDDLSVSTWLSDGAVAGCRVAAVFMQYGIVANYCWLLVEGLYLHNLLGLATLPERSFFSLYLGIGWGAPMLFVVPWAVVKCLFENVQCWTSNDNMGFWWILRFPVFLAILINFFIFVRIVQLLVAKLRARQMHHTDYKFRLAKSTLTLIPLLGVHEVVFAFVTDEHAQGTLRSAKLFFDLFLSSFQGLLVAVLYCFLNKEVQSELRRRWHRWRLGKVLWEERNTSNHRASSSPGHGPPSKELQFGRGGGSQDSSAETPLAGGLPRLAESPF
Method: The binding buffer contains 25 mM 4-(2-hydroxyethyl)-1-piperazineethanesulfonic acid (HEPES), pH 7.4, 2.5 mM CaCl₂), 1 mM MgCl₂, 0.1% (w/v) bacitracin (Research Products), 0.003% (w/v) Polyoxyethylenesorbitan monolaurate (TWEEN®-20), and Roche Complete™ Protease Inhibitors without EDTA. […] Plates are sealed and mixed on a plate shaker (setting 6) for 1 minute and read with a PerkinElmer Trilux MicroBeta® scintillation counter after 12 hours of incubation/settling time at room temperature.
Data are analyzed using four-parameter (curve maximum, curve minimum, […], Hill slope) nonlinear regression routines (Genedata Screener, version 12.0.4, Genedata AG, Basal, Switzerland). […] Values for Kᵢ are reported as the geometric mean, with error expressed as the standard error of the mean (SEM) and n is equal to the number of independent replicates (determined in assays performed on different days).

human GLP-1 receptor = target: T3, human GLP-1 receptor (human, UniProt P43220 24-463); test: SPA, displacement of [125I]-GLP-1 from hGLP-1R membranes, 0.1% bacitracin
T3 construct: whole, on cells; Assayed as crude membranes of stably transfected HEK293 cells; also called hGLP1R; hGLP-1R
Summary of the method: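 Binding buffer: 25 mM HEPES pH 7.4, 2.5 mM CaCl₂, 1 mM MgCl₂, 0.1% bacitracin, 0.003% Tween-20, protease inhibitors without EDTA. Four-parameter nonlinear regression; Kᵢ given as geometric mean ± SEM, n = independent replicates run on different days.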

B1: Example 41 (peptide)
peptide: Y[Aib]EGT[αMeF]ISDYSIALDKK([AEEA-AEEA-γGlu-C20 diacid])HQ[Aib]DFVE[4Pal]LLETGPSSGAPPPS-NH2
modifications: N-terminus assumed
SMILES: CC[C@H](C)[C@H](NC(=O)[C@H](CO)NC(=O)[C@H](Cc1ccc(O)cc1)NC(=O)[C@H](CC(=O)O)NC(=O)[C@H](CO)NC(=O)[C@@H](NC(=O)[C@](C)(Cc1ccccc1)NC(=O)[C@@H](NC(=O)CNC(=O)[C@H](CCC(=O)O)NC(=O)C(C)(C)NC(=O)[C@@H](N)Cc1ccc(O)cc1)[C@@H](C)O)[C@@H](C)CC)C(=O)N[C@@H](C)C(=O)N[C@@H](CC(C)C)C(=O)N[C@@H](CC(=O)O)C(=O)N[C@@H](CCCCN)C(=O)N[C@@H](CCCCNC(=O)COCCOCCNC(=O)COCCOCCNC(=O)CC[C@H](NC(=O)CCCCCCCCCCCCCCCCCCC(=O)O)C(=O)O)C(=O)N[C@@H](Cc1c[nH]cn1)C(=O)N[C@@H](CCC(N)=O)C(=O)NC(C)(C)C(=O)N[C@@H](CC(=O)O)C(=O)N[C@@H](Cc1ccccc1)C(=O)N[C@H](C(=O)N[C@@H](CCC(=O)O)C(=O)N[C@@H](Cc1ccncc1)C(=O)N[C@@H](CC(C)C)C(=O)N[C@@H](CC(C)C)C(=O)N[C@@H](CCC(=O)O)C(=O)N[C@H](C(=O)NCC(=O)N1CCC[C@H]1C(=O)N[C@@H](CO)C(=O)N[C@@H](CO)C(=O)NCC(=O)N[C@@H](C)C(=O)N1CCC[C@H]1C(=O)N1CCC[C@H]1C(=O)N1CCC[C@H]1C(=O)N[C@@H](CO)C(N)=O)[C@@H](C)O)C(C)C
[1]
  Ki: 0.143 nM
Human glucagon receptor
  Ki: 758 nM

B2: Example 121 (peptide)
peptide: Y[Aib]EGT[αMePhe(2-F)]ISDYSILLDKIHQ[Aib]DFVE[4Pal]K([AEEA-AEEA-γGlu-C20 diacid])LEQGPSSGAPPPS-NH2
modifications: N-terminus assumed
SMILES: CC[C@H](C)[C@H](NC(=O)[C@H](CO)NC(=O)[C@H](Cc1ccc(O)cc1)NC(=O)[C@H](CC(=O)O)NC(=O)[C@H](CO)NC(=O)[C@@H](NC(=O)[C@](C)(Cc1ccccc1F)NC(=O)[C@@H](NC(=O)CNC(=O)[C@H](CCC(=O)O)NC(=O)C(C)(C)NC(=O)[C@@H](N)Cc1ccc(O)cc1)[C@@H](C)O)[C@@H](C)CC)C(=O)N[C@@H](CC(C)C)C(=O)N[C@@H](CC(C)C)C(=O)N[C@@H](CC(=O)O)C(=O)N[C@@H](CCCCN)C(=O)N[C@H](C(=O)N[C@@H](Cc1c[nH]cn1)C(=O)N[C@@H](CCC(N)=O)C(=O)NC(C)(C)C(=O)N[C@@H](CC(=O)O)C(=O)N[C@@H](Cc1ccccc1)C(=O)N[C@H](C(=O)N[C@@H](CCC(=O)O)C(=O)N[C@@H](Cc1ccncc1)C(=O)N[C@@H](CCCCNC(=O)COCCOCCNC(=O)COCCOCCNC(=O)CC[C@H](NC(=O)CCCCCCCCCCCCCCCCCCC(=O)O)C(=O)O)C(=O)N[C@@H](CC(C)C)C(=O)N[C@@H](CCC(=O)O)C(=O)N[C@@H](CCC(N)=O)C(=O)NCC(=O)N1CCC[C@H]1C(=O)N[C@@H](CO)C(=O)N[C@@H](CO)C(=O)NCC(=O)N[C@@H](C)C(=O)N1CCC[C@H]1C(=O)N1CCC[C@H]1C(=O)N1CCC[C@H]1C(=O)N[C@@H](CO)C(N)=O)C(C)C)[C@@H](C)CC
[1]
  Ki: 0.103 nM
Human glucagon receptor
  Ki: 94.9 nM

B3: Example 1 (peptide)
peptide: YXEGTFISDYSILLDKKAQXDFVNWLLAQGPSSGAPPPS
modifications: D-Ala2; K17((2-[2-(2-Amino-ethoxy)-ethoxy]-acetyl)2-(γ-Glu)-CO-(CH2)18-CO2H); Aib20; C-terminal amide
[1]
  Ki: 0.0667 nM
Human glucagon receptor
  Ki: 228 nM
Human GLP-1 receptor
  Ki: 57.8 nM

B4: Example 2 (peptide)
peptide: B3 peptide
modifications: D-Ala2; K17((2-[2-(2-Amino-ethoxy)-ethoxy]-acetyl)2-(γ-Glu)-CO-(CH2)16-CO2H); Aib20; C-terminal amide
[1]
  Ki: 0.0373 nM
Human glucagon receptor
  Ki: 379 nM
Human GLP-1 receptor
  Ki: 77.9 nM

B5: Example 20 (peptide)
peptide: B3 peptide with D21E
modifications: D-Ala2; K17((2-[2-(2-Amino-ethoxy)-ethoxy]-acetyl)2-(γ-Glu)-CO-(CH2)16-CO2H); Aib20; C-terminal amide
[1]
  Ki: 0.0477 nM
Human glucagon receptor
  Ki: 216 nM
Human GLP-1 receptor
  Ki: 79.8 nM

B6: Example 19 (peptide)
peptide: B3 peptide with Q29G
modifications: D-Ala2; K17((2-[2-(2-Amino-ethoxy)-ethoxy]-acetyl)2-(γ-Glu)-CO-(CH2)16-CO2H); Aib20; C-terminal amide
[1]
  Ki: 0.0469 nM
Human glucagon receptor
  Ki: 335 nM
Human GLP-1 receptor
  Ki: 15.2 nM

B7: Example 28 (peptide)
peptide: B3 peptide with D21E, A28E, Q29G
modifications: D-Ala2; K17((2-[2-(2-Amino-ethoxy)-ethoxy]-acetyl)2-(γ-Glu)-CO-(CH2)16-CO2H); Aib20; C-terminal amide
[1]
  Ki: 0.0732 nM
Human glucagon receptor
  Ki: 86.8 nM
Human GLP-1 receptor
  Ki: 6.46 nM

B8: Example 17 (peptide)
peptide: B3 peptide with A28E
modifications: D-Ala2; K17((2-[2-(2-Amino-ethoxy)-ethoxy]-acetyl)2-(γ-Glu)-CO-(CH2)16-CO2H); Aib20; C-terminal amide
[1]
  Ki: 0.0571 nM
Human glucagon receptor
  Ki: 274 nM
Human GLP-1 receptor
  Ki: 106 nM

B9: Example 16 (peptide)
peptide: B3 peptide with N24E
modifications: D-Ala2; K17((2-[2-(2-Amino-ethoxy)-ethoxy]-acetyl)2-(γ-Glu)-CO-(CH2)16-CO2H); Aib20; C-terminal amide
[1]
  Ki: 0.0438 nM
Human glucagon receptor
  Ki: 549 nM
Human GLP-1 receptor
  Ki: 99.2 nM

B10: Example 29 (peptide)
peptide: B3 peptide with D21E, N24E, Q29G
modifications: D-Ala2; K17((2-[2-(2-Amino-ethoxy)-ethoxy]-acetyl)2-(γ-Glu)-CO-(CH2)16-CO2H); Aib20; C-terminal amide
[1]
  Ki: 0.0569 nM
Human glucagon receptor
  Ki: 133 nM
Human GLP-1 receptor
  Ki: 22.7 nM

B11: Example 27 (peptide)
peptide: B3 peptide with D21E, N24Q, Q29G
modifications: D-Ala2; K17((2-[2-(2-Amino-ethoxy)-ethoxy]-acetyl)2-(γ-Glu)-CO-(CH2)16-CO2H); Aib20; C-terminal amide
[1]
  Ki: 0.0354 nM
Human glucagon receptor
  Ki: 401 nM
Human GLP-1 receptor
  Ki: 23.2 nM

B12: Example 3 (peptide)
peptide: Y[Aib]EGTFISDYSI[αMeL]LDKK([AEEA-AEEA-γGlu-C20 diacid])HQ[Aib]DFVE[4Pal]LLEAGPSSGAPPPS-NH2
modifications: N-terminus assumed
SMILES: CC[C@H](C)[C@H](NC(=O)[C@H](Cc1ccccc1)NC(=O)[C@@H](NC(=O)CNC(=O)[C@H](CCC(=O)O)NC(=O)C(C)(C)NC(=O)[C@@H](N)Cc1ccc(O)cc1)[C@@H](C)O)C(=O)N[C@@H](CO)C(=O)N[C@@H](CC(=O)O)C(=O)N[C@@H](Cc1ccc(O)cc1)C(=O)N[C@@H](CO)C(=O)N[C@H](C(=O)N[C@@](C)(CC(C)C)C(=O)N[C@@H](CC(C)C)C(=O)N[C@@H](CC(=O)O)C(=O)N[C@@H](CCCCN)C(=O)N[C@@H](CCCCNC(=O)COCCOCCNC(=O)COCCOCCNC(=O)CC[C@H](NC(=O)CCCCCCCCCCCCCCCCCCC(=O)O)C(=O)O)C(=O)N[C@@H](Cc1c[nH]cn1)C(=O)N[C@@H](CCC(N)=O)C(=O)NC(C)(C)C(=O)N[C@@H](CC(=O)O)C(=O)N[C@@H](Cc1ccccc1)C(=O)N[C@H](C(=O)N[C@@H](CCC(=O)O)C(=O)N[C@@H](Cc1ccncc1)C(=O)N[C@@H](CC(C)C)C(=O)N[C@@H](CC(C)C)C(=O)N[C@@H](CCC(=O)O)C(=O)N[C@@H](C)C(=O)NCC(=O)N1CCC[C@H]1C(=O)N[C@@H](CO)C(=O)N[C@@H](CO)C(=O)NCC(=O)N[C@@H](C)C(=O)N1CCC[C@H]1C(=O)N1CCC[C@H]1C(=O)N1CCC[C@H]1C(=O)N[C@@H](CO)C(N)=O)C(C)C)[C@@H](C)CC
[1]
  Ki: 0.0525 nM
Human glucagon receptor
  Ki: 338 nM
Human GLP-1 receptor
  Ki: 381 nM

B13: Example 122 (peptide)
peptide: Y[Aib]EGTFISDYSI[αMeL]LD[Orn]IHQ[Aib]EFVE[4Pal]K([AEEA-AEEA-γGlu-C20 diacid])LEAGPSSGAPPPS-NH2
modifications: N-terminus assumed
SMILES: CC[C@H](C)[C@H](NC(=O)[C@H](CCCN)NC(=O)[C@H](CC(=O)O)NC(=O)[C@H](CC(C)C)NC(=O)[C@](C)(CC(C)C)NC(=O)[C@@H](NC(=O)[C@H](CO)NC(=O)[C@H](Cc1ccc(O)cc1)NC(=O)[C@H](CC(=O)O)NC(=O)[C@H](CO)NC(=O)[C@@H](NC(=O)[C@H](Cc1ccccc1)NC(=O)[C@@H](NC(=O)CNC(=O)[C@H](CCC(=O)O)NC(=O)C(C)(C)NC(=O)[C@@H](N)Cc1ccc(O)cc1)[C@@H](C)O)[C@@H](C)CC)[C@@H](C)CC)C(=O)N[C@@H](Cc1c[nH]cn1)C(=O)N[C@@H](CCC(N)=O)C(=O)NC(C)(C)C(=O)N[C@@H](CCC(=O)O)C(=O)N[C@@H](Cc1ccccc1)C(=O)N[C@H](C(=O)N[C@@H](CCC(=O)O)C(=O)N[C@@H](Cc1ccncc1)C(=O)N[C@@H](CCCCNC(=O)COCCOCCNC(=O)COCCOCCNC(=O)CC[C@H](NC(=O)CCCCCCCCCCCCCCCCCCC(=O)O)C(=O)O)C(=O)N[C@@H](CC(C)C)C(=O)N[C@@H](CCC(=O)O)C(=O)N[C@@H](C)C(=O)NCC(=O)N1CCC[C@H]1C(=O)N[C@@H](CO)C(=O)N[C@@H](CO)C(=O)NCC(=O)N[C@@H](C)C(=O)N1CCC[C@H]1C(=O)N1CCC[C@H]1C(=O)N1CCC[C@H]1C(=O)N[C@@H](CO)C(N)=O)C(C)C
[1]
  Ki: 0.0311 nM
Human glucagon receptor
  Ki: 957 nM
